Test results taken from patent US20260274921A1.

Assays:
[1] = molecular target: His-tagged CD47 extracellular domain (ECD) protein (Abclonal, CAT #RP01306) (human) (UniProt Q08722); assay: ELISA; pH 7.2; conditions: Fc fusion
[2] = molecular target: His-tagged CD47 extracellular domain (ECD) protein (Abclonal, CAT #RP01306) (human) (UniProt Q08722); assay: ELISA; pH 6.0; conditions: Fc fusion

Chain of His-tagged CD47 extracellular domain (ECD) protein (Abclonal, CAT #RP01306) (human) (Q08722 19-139): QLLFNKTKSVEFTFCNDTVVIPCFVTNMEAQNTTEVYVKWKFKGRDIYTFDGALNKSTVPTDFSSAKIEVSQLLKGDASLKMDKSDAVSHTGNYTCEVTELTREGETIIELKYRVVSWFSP

Substance	EC50 [1] [nM]	EC50 [2] [nM]
SIN-302, SIRPαV2 R69H IgV-IgG1 Fc	158	30
SIN-300, wild type SIRPαV2 IgV-IgG1 Fc fusion protein	3.84	0.667
SIN-303, SIRPαV2 Q52H IgV-IgG1 Fc	6.92	0.627

More lines, in order of falling EC50 [2], values ahead:

EC50 [1] [nM]	EC50 [2] [nM]	Substance
	1.35	SIN-301, SIRPαV2 K53H IgV-IgG1 Fc
	0.772	SIN-304, SIRPαV2 K68H IgV-IgG1 Fc
